# Assay results: patent US20140056918A1 (Novo Nordisk, published 2014)
# T1: Human OSCAR (osteoclast-associated receptor), full length, on cells (human)
# T1 construct: The signal peptide limits cannot be read from the text; also called hOSCAR; HEK-OSCAR cells
# T1 chain: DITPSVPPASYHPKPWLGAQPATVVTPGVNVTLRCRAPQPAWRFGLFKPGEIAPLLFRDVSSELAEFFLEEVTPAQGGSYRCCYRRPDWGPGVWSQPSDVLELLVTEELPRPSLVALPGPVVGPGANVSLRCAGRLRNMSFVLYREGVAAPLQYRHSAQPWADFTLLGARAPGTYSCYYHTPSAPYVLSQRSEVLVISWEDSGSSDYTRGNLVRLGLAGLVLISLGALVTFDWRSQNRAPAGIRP
# T2: Human OSCAR-S1a (naturally occurring soluble isoform) (human, UniProt Q8IYS5 19-282)
# T2 construct: Recombinant soluble isoform used as SPR analyte; also called OSCAR 1Sa
# T2 sequence: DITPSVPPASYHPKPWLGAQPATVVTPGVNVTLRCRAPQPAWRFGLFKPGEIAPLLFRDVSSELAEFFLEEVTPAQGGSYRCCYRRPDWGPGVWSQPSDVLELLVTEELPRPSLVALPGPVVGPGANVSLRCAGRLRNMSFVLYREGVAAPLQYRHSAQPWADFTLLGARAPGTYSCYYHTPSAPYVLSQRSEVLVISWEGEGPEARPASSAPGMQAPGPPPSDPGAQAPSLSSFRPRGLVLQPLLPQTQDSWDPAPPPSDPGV
# B1: Human OSCAR-ECD (recombinant extracellular domain of human OSCAR) (receptor)
# chain: DITPSVPPASYHPKPWLGAQPATVVTPGVNVTLRCRAPQPAWRFGLFKPGEIAPLLFRDVSSELAEFFLEEVTPAQGGSYRCCYRRPDWGPGVWSQPSDVLELLVTEELPRPSLVALPGPVVGPGANVSLRCAGRLRNMSFVLYREGVAAPLQYRHSAQPWADFTLLGARAPGTYSCYYHTPSAPYVLSQRSEVLVISWEDSGSSDYTR
# notes: also called OSACAR-ECD
# Legend:
# [1] = target: T1, Human OSCAR (osteoclast-associated …); assay: flow cytometry on primary human monocytes, donor #1
# Protocol: (§1) Cell number and viability were determined using a Cedex cell counter. The cells were diluted in washing buffer (1×PBS (—Ca²⁺/—Mg²⁺)+5% FBS+0.1% Na-azide) to […]. In the case of monocytes, the cells were further blocked by adding 10 μl of a hFcR blocker (Miltenyi, #130-059-901) and incubated for 10 minutes at 4° C. 50 μl of cells (50.000 cells/well) were seeded into 96 well round-bottomed microtiter plates. Hybridoma supernatants or purified antibodies (in serial dilutions) were added to the cells at 50 μl/well. The isotype-matched purified irrelevant human mAb or mouse mAb served as negative controls (mouse IgG1, BD, #553452; mouse IgG2a, BD, #557353; mouse IgG2b, BD, #557352). […] Cells were washed in PBS, re-suspended in fixation buffer (1×PBS (—Ca²⁺/—Mg²⁺), pH7.2+1% formalin (B&B, #LAB96751.0500) and analysed by FACS flow cytometer. EC₅₀ values were calculated using a GraphPad Prism 5 software.
# [2] = target: T1, Human OSCAR (osteoclast-associated …); assay: cell-based or functional assay
# [3] = target: B1; assay: SPR (Biacore T100), mAb coupled or captured on chip, OSCAR-ECD injected, 1:1 fit
# Protocol: The kinetic parameters (kₐ, kd and KD) for the interaction were calculated using a 1:1 interaction Langmuir fitting model.
# [4] = target: T2, Human OSCAR-S1a (naturally occurring …); assay: SPR competition, 50 nM OSCAR-S1a premixed with mAb, over ColI immobilised at ca 300 RU
# Protocol: (§2) The experiment was performed using a Biacore T 100 instrument (GE Healthcare). Human ColI (Sigma, # C5483) was diluted with 10 mM NaOAc, pH 4.5 to 10 μg/ml and immobilized on a Biacore CM3 sensor chip (GE Healthcare) using amine coupling chemistry (GE Healthcare). Immobilization was performed according to the standard procedure, but at 4° C. in order to prevent aggregation of ColI, with immobilized levels of ca 150 RU on flow cell (FC) 2 and ca 300 RU on FC 4. A blank immobilization was performed on FC 1 & 3, which were used as reference cells. HBS-EP buffer (10 mM HEPES, 150 mM NaCl, 3 mM EDTA, 0.005% Polysorbat P20, pH7.4) was used as running buffer for the immobilization. Buffer containing HBS-EP/+0.1% BSA was used for the competition assay.
# (§3) The competition experiment was performed at 4° C. at a flow rate of 50 μl/min. […] OSCAR was mixed with various concentrations of anti-OSCAR antibodies ranging from 0-5 μg/ml prior to injection. Binding curves were measured for 240 s followed by 200 s of dissociation. The chip surface was regenerated for 2×20 s with 10 mM glycine, pH 2.0 between assays. All assays were performed in duplicates.
# (§4) Human ColI was immobilized to the surface of a Biacore sensor chip by amine coupling.
# [5] = target: T2, Human OSCAR-S1a (naturally occurring …); assay: SPR competition, 50 nM OSCAR-S1a premixed with mAb, over ColI immobilised at ca 150 RU
# Protocol: as §2, §3, §4
# [6] = target: T1, Human OSCAR (osteoclast-associated …); assay: flow cytometry on primary human monocytes, donor #2
# Protocol: as §1
# [7] = target: B1; assay: SPR competition, 50 nM OSCAR-ECD premixed with mAb, over ColI immobilised at ca 300 RU
# Protocol: as §2, §3, §4
# [8] = target: B1; assay: SPR competition, 50 nM OSCAR-ECD premixed with mAb, over immobilised collagen I
# Protocol: (§5) The experiment was performed using a Biacore T 100 instrument (GE Healthcare). Human collagen 1 (Sigma, # C5483) and human collagen 2 (Millipore #CC052) were diluted with 10 mM NaOAc, pH 4.5 and immobilized on a Biacore CM3 sensor chip (GE Healthcare) using amine coupling chemistry (GE Healthcare). Immobilization was performed according to the standard procedure, but at 5° C. in order to prevent aggregation collagens, with immobilized levels of ca 250 RU on flow cells (FC) 2 and 4. A blank immobilization was performed on FC 1 & 3, which were used as reference cells. HBS-EP buffer (10 mM HEPES, 150 mM NaCl, 3 mM EDTA, 0.05% Polysorbat P20, pH7.4) was used as running buffer for the immobilization. Buffer containing HBS-EP/+0.1% BSA was used for the competition assay. The competition experiment was performed at 5° C. at a flow rate of 50 μl/min. […] OSCAR was mixed with various concentrations of anti-OSCAR antibodies ranging from 0-10 μg/ml prior to injection. Binding curves were measured for 360 s followed by 240 s of dissociation. The chip surface was regenerated for 2×20 s with 10 mM glycine, pH 2.0 between assays.
# (§6) Human collagen I and II were immobilized to the surface of a Biacore sensor chip by amine coupling. […] It was hypothesized that an antibody inhibiting binding of OSCAR to collagen would lead to a concentration-dependent loss of signal, whereas a non-inhibiting antibody would enhance the signal due to the increased mass of the OSCAR-antibody complex.
# [9] = target: B1; assay: SPR competition, 50 nM OSCAR-ECD premixed with mAb, over ColI immobilised at ca 150 RU
# Protocol: as §2, §3, §4
# [10] = target: B1; assay: SPR competition, 50 nM OSCAR-ECD premixed with mAb, over immobilised collagen II; set-up: unit not given here
# Protocol: as §5, §6
# [11] = target: T3, Human collagen I (Sigma, #C5483) (human, UniProt P02452 162-1218; P08123 80-1119); assay: SPR
# T3 construct: Bought collagen preparation, immobilised by amine coupling or coated on plates; also called ColI; colI
# T3 sequence (P02452 162-1218, chain 1 of 2): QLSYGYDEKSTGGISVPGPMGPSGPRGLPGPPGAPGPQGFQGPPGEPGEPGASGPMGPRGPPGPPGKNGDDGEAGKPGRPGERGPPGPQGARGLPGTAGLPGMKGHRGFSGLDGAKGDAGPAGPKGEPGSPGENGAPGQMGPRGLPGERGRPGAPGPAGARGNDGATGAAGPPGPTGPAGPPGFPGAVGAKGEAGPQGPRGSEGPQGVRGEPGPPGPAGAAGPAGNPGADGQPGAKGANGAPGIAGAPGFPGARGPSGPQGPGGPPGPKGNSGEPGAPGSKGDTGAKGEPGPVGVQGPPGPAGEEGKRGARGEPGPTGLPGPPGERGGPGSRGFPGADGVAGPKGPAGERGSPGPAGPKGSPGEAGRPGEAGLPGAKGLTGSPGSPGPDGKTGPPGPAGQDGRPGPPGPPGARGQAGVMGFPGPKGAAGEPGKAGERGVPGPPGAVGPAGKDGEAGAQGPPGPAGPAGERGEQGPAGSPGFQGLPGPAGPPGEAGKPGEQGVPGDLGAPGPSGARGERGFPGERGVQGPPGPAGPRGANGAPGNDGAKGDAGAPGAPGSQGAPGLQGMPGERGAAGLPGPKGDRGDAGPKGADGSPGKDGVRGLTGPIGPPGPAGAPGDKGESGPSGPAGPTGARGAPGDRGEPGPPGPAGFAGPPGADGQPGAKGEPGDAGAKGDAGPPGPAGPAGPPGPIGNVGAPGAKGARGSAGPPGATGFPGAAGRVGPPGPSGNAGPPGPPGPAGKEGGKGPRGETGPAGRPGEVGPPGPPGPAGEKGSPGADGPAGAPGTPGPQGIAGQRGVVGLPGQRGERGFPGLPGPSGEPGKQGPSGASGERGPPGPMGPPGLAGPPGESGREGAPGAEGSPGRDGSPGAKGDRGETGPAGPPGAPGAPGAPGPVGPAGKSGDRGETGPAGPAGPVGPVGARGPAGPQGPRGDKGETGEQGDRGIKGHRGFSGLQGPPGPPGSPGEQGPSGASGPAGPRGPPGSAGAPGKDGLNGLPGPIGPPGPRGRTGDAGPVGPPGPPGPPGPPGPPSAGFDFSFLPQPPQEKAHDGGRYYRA
# T3 sequence (P08123 80-1119, chain 2 of 2): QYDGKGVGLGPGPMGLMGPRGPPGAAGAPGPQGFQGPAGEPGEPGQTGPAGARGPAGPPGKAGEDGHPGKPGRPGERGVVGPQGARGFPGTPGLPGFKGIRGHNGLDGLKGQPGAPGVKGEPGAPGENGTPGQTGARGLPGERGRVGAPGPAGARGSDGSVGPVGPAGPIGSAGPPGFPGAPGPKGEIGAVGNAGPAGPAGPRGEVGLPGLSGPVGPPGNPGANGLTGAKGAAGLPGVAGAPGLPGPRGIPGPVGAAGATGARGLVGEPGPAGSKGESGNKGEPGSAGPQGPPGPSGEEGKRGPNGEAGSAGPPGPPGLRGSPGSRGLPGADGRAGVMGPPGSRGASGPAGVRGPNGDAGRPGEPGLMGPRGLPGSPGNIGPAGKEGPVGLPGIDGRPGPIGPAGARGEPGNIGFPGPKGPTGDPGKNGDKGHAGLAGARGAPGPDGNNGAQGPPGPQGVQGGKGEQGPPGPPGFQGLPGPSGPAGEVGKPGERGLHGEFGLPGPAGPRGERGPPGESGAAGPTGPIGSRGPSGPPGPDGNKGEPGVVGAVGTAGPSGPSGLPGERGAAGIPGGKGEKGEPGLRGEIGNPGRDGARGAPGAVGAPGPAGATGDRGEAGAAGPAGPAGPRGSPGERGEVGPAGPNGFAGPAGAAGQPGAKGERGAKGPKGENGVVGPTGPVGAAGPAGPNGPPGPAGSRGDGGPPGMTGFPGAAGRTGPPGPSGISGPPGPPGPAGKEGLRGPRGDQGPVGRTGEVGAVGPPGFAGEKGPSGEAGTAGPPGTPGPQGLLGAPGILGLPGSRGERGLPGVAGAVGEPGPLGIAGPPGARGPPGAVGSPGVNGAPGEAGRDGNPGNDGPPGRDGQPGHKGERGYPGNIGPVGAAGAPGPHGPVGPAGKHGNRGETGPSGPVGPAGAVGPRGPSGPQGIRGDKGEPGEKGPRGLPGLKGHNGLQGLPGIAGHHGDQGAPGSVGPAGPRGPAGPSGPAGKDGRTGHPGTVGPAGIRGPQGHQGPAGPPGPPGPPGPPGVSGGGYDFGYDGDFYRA
EC50 [1] [pM],"IC50 (IL-8), ColI-induced IL-8 release from moDC, Donor 1 [2] [pM]","IC50 (IL-8), ColI-induced IL-8 release from moDC, Donor 3 [2] [pM]","IC50 (IL-8), ColI-induced IL-8 release from moDC, Donor 4 [2] [pM]","IC50 (IL-8), ColI-induced IL-8 release from moDC, Donor 5 [2] [pM]","IC50 (IL-8), ColI-induced IL-8 release from moDC, Donor 6 [2] [pM]",Kd [3] [pM],Binding [RU] of OSCAR to ColI with 5 µg mAb [4] [RU],Binding [RU] of OSCAR to ColI with 5 µg mAb [5] [RU],EC50 [6] [pM],Binding [RU] of OSCAR to ColI with 5 µg mAb [7] [RU],binding of OSCAR-ECD to collagen I with 10 µg/mL mAb [8],Binding [RU] of OSCAR to ColI with 5 µg mAb [9] [RU],binding of OSCAR-ECD to collagen II with 10 µg/mL mAb [10],Kd [11] [pM],"IC50 (IL-8), ColI-induced IL-8 release from moDC, Donor 2 [2] [pM]",Binder
660,190,400,120,430,240,1700,1.4,-0.3,320,3.6,0.7,0.9,6.7,–,–,"4F3B (antibody, V domains shown, Mouse anti-human OSCAR mAb (its isotype control is mIgG1); The heavy chain entry covers only VH-CH1 and the start of the hinge; It was fluorescein-labelled in the peptide array and Alexa Fluor 647-labelled in the flow binning; also called mAb 4F3B) VH: QVQLQQSGAELAKPGASVKMSCKASGFTFTSYWMHWVKQRPGQGLEWIGYINPSTDYTEYNQKFKDKATLTADKSSSTAYMQLSSLTSEDSAVYYCARRSPFAMDYWGQGTSVTVSS VL: DIVMTQSPSSLTVTAGEKVTMSCKSSQSLLNSGNQKNYLTWYQQKPGQPPKVLIYWASTRESGVPDRFTGSGSGTDFTLTISSVQAEDLAVYYCQNDYSYPLTFGTGTKLELKR"
4020,2000,–,< 10,230,60,700,2,-0.2,2180,5.1,-1.4,1.4,1.3,–,–,"13F5A5 (antibody, V domains shown, Fully human anti-OSCAR mAb from HuMab mice; also called 13F5A5 (Hu)) VH: EVQLVQSGAEVKKPGESLKISCKGSGYSFTSYWIVWVRQMPGKGLEWMGSIYPGDSDARYSPSFQGQVTISADKSISTAYLQWSSLKASDTAMYYCARQKITMVRGVIITPLDGMDVWGQGTTVTVSS VL: not shown"
–,–,–,–,–,–,–,–,–,–,–,–,–,–,255000,–,B1
1790,160,410,60,50,100,9100,92.6,58.9,140,130,132,82.5,246,–,60,"3F7A9 (antibody, V domains shown, Mouse anti-human OSCAR mAb (its isotype control is mIgG1); The heavy chain entry covers only VH-CH1 and the start of the hinge; also called 3F7A9-1) VH: EIQLQQSGPELVKPGASVKVSCKASGYVFTSYNMYWVKQSHGKSLEWIGYIDPYNGGTRYNQKFKGKATLTVDKSSSTAYMHLNSLTSEDSAVYYCARLDYYGNFYWGQGTTLTVSS VL: DIKMTQSPSSMYASLGERVTITCKASQDINSFLSWLQQKPGKSPKTLIYRANRLVDGVPSRFSGSGSGQDYSLTISSLEYEDMGIYYCLQYDDFPYTFGGGTKLEIKR"
